Source: the supplement of paper PMC9876800

Test system: peptide library, one residue held at a place counted from the S/T acceptor
Experiment: relative phosphorylation of the sub-library (ratio to the mean residue at this position); higher = residue favoured
Conditions: human
Outline: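 Relative sub-library phosphorylation is the ratio of each sub-library's signal to the mean residue at that position. The signal came from phosphorimaging of spots on streptavidin membranes, quantified by densitometry, after purified recombinant kinases reacted with biotinylated degenerate peptide sub-libraries in 384-well plates. Reactions held 50 μM peptide and 50 μM ATP spiked with γ-32P-ATP for 90 min under kinase-specific conditions.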

Chain of MYLK3, construct: aa490-end (Q32MK0 490-819, looked up): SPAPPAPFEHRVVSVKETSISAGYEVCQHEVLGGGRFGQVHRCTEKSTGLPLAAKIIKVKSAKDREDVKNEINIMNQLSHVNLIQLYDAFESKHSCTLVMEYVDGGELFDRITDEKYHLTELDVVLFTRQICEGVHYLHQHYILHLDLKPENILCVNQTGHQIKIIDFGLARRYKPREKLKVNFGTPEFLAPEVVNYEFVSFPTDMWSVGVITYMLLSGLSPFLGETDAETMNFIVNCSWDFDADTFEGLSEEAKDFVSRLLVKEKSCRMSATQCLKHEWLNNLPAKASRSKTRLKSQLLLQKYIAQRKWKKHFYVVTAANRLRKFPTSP

MTOR, construct: aa1362-end (from UniProt P42345)
relative phosphorylation
Conditions | at +1 | at +2 | at +3 | at +4 | at -1 | at -2 | at -3 | at -4 | at -5
A fixed | 0.644 | 0.815 | 1.08 | 0.948 | 0.839 | 1.52 | 0.751 | 0.924 | 0.888
D fixed | 0.338 | 1.2 | 1.11 | 0.821 | 0.489 | 0.686 | 0.747 | 1.1 | 1.21
E fixed | 0.342 | 0.889 | 1.07 | 0.829 | 0.709 | 0.643 | 0.983 | 1.09 | 1.04
F fixed | 1.72 | 0.686 | 0.647 | 1.01 | 1.01 | 1.09 | 1.09 | 1.08 | 1
G fixed | 0.613 | 0.903 | 1.43 | 1.21 | 2.83 | 1.58 | 1.01 | 0.942 | 1.07
H fixed | 0.556 | 1.24 | 1.17 | 1.28 | 1.18 | 1.05 | 1.14 | 1.21 | 1.15
I fixed | 0.707 | 0.686 | 0.601 | 0.706 | 0.433 | 0.88 | 0.778 | 0.747 | 0.593
K fixed | 0.487 | 1.58 | 1.35 | 1.36 | 0.986 | 0.854 | 0.924 | 0.879 | 1.1
L fixed | 1.43 | 1.16 | 0.756 | 0.695 | 0.698 | 0.682 | 0.938 | 0.956 | 0.724
M fixed | 1.02 | 0.673 | 0.694 | 0.868 | 1.13 | 0.705 | 1.05 | 1.07 | 0.807
N fixed | 0.452 | 1.12 | 1.33 | 0.968 | 1.36 | 0.954 | 0.986 | 0.939 | 0.923
P fixed | 2.13 | 1.31 | 0.993 | 0.872 | 0.786 | 1.56 | 1.09 | 0.955 | 1.47
Q fixed | 0.561 | 0.83 | 0.942 | 0.92 | 1.15 | 0.838 | 0.949 | 0.953 | 0.862
R fixed | 0.506 | 1.7 | 1.2 | 1.2 | 1.15 | 0.973 | 1.1 | 1.02 | 1.04
V fixed | 0.816 | 0.728 | 0.675 | 0.7 | 0.482 | 0.985 | 0.795 | 0.708 | 0.745
W fixed | 1.99 | 0.643 | 0.99 | 1.41 | 0.721 | 1.05 | 1.2 | 1.3 | 1.36
Y fixed | 2.68 | 0.836 | 0.972 | 1.2 | 1.05 | 0.956 | 1.47 | 1.13 | 1.01
pThr fixed | 0.637 | 1.71 | 1.67 | 1.27 | 0.546 | 1.01 | 1.15 | 1.34 | 1.16
pTyr fixed | 1.06 | 0.721 | 1 | 0.941 | 0.841 | 1.27 | 1.66 | 1.37 | 1.21

MYLK3, construct: aa490-end (from UniProt Q32MK0)
relative phosphorylation
Conditions | at +1 | at +2 | at +3 | at +4 | at -1 | at -2 | at -3 | at -4 | at -5
A fixed | 0.997 | 0.992 | 0.828 | 1 | 0.944 | 0.927 | 0.967 | 1.04 | 0.985
D fixed | 0.753 | 0.819 | 0.786 | 0.983 | 0.851 | 0.585 | 0.67 | 0.758 | 0.72
E fixed | 0.833 | 0.958 | 0.758 | 1.01 | 0.799 | 0.585 | 0.667 | 0.836 | 0.722
F fixed | 0.951 | 1.06 | 1.43 | 1.02 | 0.964 | 0.641 | 0.71 | 0.904 | 0.919
G fixed | 0.937 | 0.89 | 0.861 | 1.04 | 0.913 | 0.788 | 0.879 | 1.01 | 0.982
H fixed | 0.922 | 0.995 | 0.943 | 1.07 | 1.03 | 1.09 | 0.884 | 0.976 | 0.987
I fixed | 1.1 | 1.19 | 0.997 | 1.03 | 0.971 | 0.656 | 0.748 | 0.936 | 1.09
K fixed | 1.25 | 0.972 | 0.81 | 0.941 | 1.09 | 1.44 | 1.41 | 1.42 | 1.29
L fixed | 0.938 | 1 | 1.2 | 1.04 | 1.24 | 0.653 | 0.711 | 0.918 | 0.983
M fixed | 1.18 | 1.02 | 0.953 | 0.932 | 1.2 | 0.711 | 0.756 | 0.991 | 1.04
N fixed | 0.961 | 0.863 | 0.839 | 0.93 | 1.07 | 0.737 | 0.717 | 0.867 | 0.813
P fixed | 0.786 | 0.899 | 0.876 | 1.18 | 0.956 | 0.778 | 0.933 | 1.01 | 1.11
Q fixed | 1.1 | 0.887 | 0.786 | 0.937 | 0.949 | 0.762 | 0.77 | 0.902 | 0.85
R fixed | 1.43 | 1.07 | 0.821 | 1 | 1.17 | 4.7 | 3.93 | 1.62 | 1.68
V fixed | 1.12 | 1.19 | 0.889 | 0.943 | 0.972 | 0.668 | 0.773 | 1.01 | 1.01
W fixed | 0.839 | 0.997 | 2.22 | 1.05 | 0.862 | 0.63 | 0.735 | 0.858 | 0.813
Y fixed | 0.908 | 1.19 | 1 | 0.902 | 1.02 | 0.647 | 0.729 | 0.938 | 1
pThr fixed | 1.12 | 1.06 | 0.774 | 1.08 | 0.769 | 0.637 | 0.724 | 0.809 | 0.728
pTyr fixed | 0.83 | 1.06 | 0.883 | 1.02 | 0.882 | 0.644 | 0.994 | 0.844 | 0.798
